From patent publication US20080311130A1 (IMMUNE DISEASE INSTITUTE, published 2008)
Residue numbers refer to the chain shown, from its start. Names and notes keep the numbering of the source.

B1: soluble αL I domain mutant F292G, Asn-129 to Tyr-307 (receptor)
chain: NVDLVFLFDGSMSLQPDEFQKILDFMKDVMKKLSNTSYQFAAVQFSTSYKTEFDFSDYVKWKDPDALLKHVKHMLLLTNTFGAINYVATEVFREELGARPDATKVLIIITDGEATDSGNIDAAKDIIRYIIGIGKHFQTKESQETLHKFASKPASEFVKILDTGEKLKDLFTELQKKIY
B2: soluble αL I domain double mutant F265S/F292G, Asn-129 to Tyr-307 (receptor)
chain: B1 chain with F137S
B3: soluble αL I domain mutant F292A, Asn-129 to Tyr-307 (receptor)
chain: B1 chain with G164A
B4: soluble αL I domain mutant F265S, Asn-129 to Tyr-307 (receptor)
chain: B1 chain with F137S, G164F
B5: αL I domain clone m10b (E293G), yeast-displayed (receptor, not shown: large carriers; small tags and cut ends)
chain: NVDLVFLFDGSMSLQPDEFQKILDFMKDVMKKLSNTSYQFAAVQFSTSYKTEFDFSDYVKWKDPDALLKHVKHMLLLTNTFGAINYVATEVFREELGARPDATKVLIIITDGEATDSGNIDAAKDIIRYIIGIGKHFQTKESQETLHKFASKPASEFVKILDTFGKLKDLFTELQKKIYVIEGTSKQDLT
B6: αL I domain clone f1 (L289A), yeast-displayed (receptor, not shown: large carriers; small tags and cut ends)
chain: B5 chain with L161A, G165E
B7: αL I domain clone m15a (F277L), yeast-displayed (receptor)
chain: B5 chain with F149L, G165E
notes: yeast surface display; not shown: Aga2, linker and hemagglutinin tag of pCTCON; c-myc tag
B8: αL I domain clone m14 (I288N), yeast-displayed (receptor)
chain: B5 chain with I160N, G165E
notes: as for B7
B9: αL I domain clone m12 (I150T, G246V, F299L, I309T), yeast-displayed (receptor)
chain: B5 chain with I22T, G118V, G165E, F171L, I181T
notes: as for B7
B10: αL I domain clone m13 (F265S), yeast-displayed (receptor)
chain: B5 chain with F137S, G165E
notes: as for B7
B11: αL I domain clone m12c (I309T), yeast-displayed (receptor)
chain: B5 chain with G165E, I181T
notes: as for B7
B12: αL I domain clone m15 (F277L, I288T), yeast-displayed (receptor)
chain: B5 chain with F149L, I160T, G165E
notes: as for B7

How the values were obtained:
[1] = target: T1, ICAM-1-Fcγ (ICAM-1 residues of 1-480 fused to the Fc of human IgG, R&D Systems) (human, UniProt P05362 28-480); experiment: SPR (Biacore)
T1 construct: range 1-480; Bought (R&D Systems); also called ICAM-1-Fcγ chimera; not shown: Fc of human IgG
Protocol: Sensograms show the binding of the I domain mutants (F292A, F265S, F292G, and F265S/F292G) to ICAM-1-Fcγ-coated sensor chip. In all sensograms, the signals from the control surface, as described in Materials and Methods, were subtracted. I domain mutants were injected in a series of concentrations starting from 100 μM for F292A and 1 μM for F292G, F265S, and F265S/F292G, and the subsequent concentrations were by two-fold serial dilutions.
(§1) Mutant I domains (F265S, F292A, F292G, F265S/F292G, and HA) with residues of Asn-129 to Tyr-307 were expressed in Escherichia coli BL21 (DE3) (Novagen), refolded, and purified as described previously⁶. ICAM-1-Fcγ-coupled or mock-coupled CM5 sensor chip as control was prepared using the amine coupling kit (BIAcore, Piscataway, N.J.), as described previously³³. Surface plasmon resonance was measured using Biacore 3000. I domains were injected over the chip in 20 mM Tris HCl, pH 8.0, 150 mM NaCl, 10 mM MgCl₂, at a flow rate of 10 μl/min at room temperature.
(§2) The values shown in the table are mean ± SD from three independent measurements. The parameters of kₒₙ, koff, and Kd were calculated by fitting the 1:1 Langmuir binding model to the Biacore sensogram. The values were from the previous studies ⁶.

[2] = target: T1, ICAM-1-Fcγ (ICAM-1 residues of 1-480 …); experiment: SPR (Biacore); wild-type value from a previous study
[3] = target: T1, ICAM-1-Fcγ (ICAM-1 residues of 1-480 …); experiment: SPR (Biacore 3000), I domain injected over ICAM-1-Fcγ-coupled CM5 chip, 10 mM MgCl2
Protocol: as §1
Several of the most activating mutants were expressed in Escherichia coli and refolded in order to measure the kinetics of binding to ICAM-1 by surface plasmon resonance (FIG. 2). Data are shown in Table 2, and for comparison are shown kinetics measured for the wild-type and disulfide-bonded IA and HA mutants in a previous study⁶, and for the same disulfide-bonded HA mutant in the current study.
as §2

[4] = target: T1, ICAM-1-Fcγ (ICAM-1 residues of 1-480 …); experiment: cell-based or functional assay
[5] = target: ICAM-1-Fcγ (ICAM-1 residues of 1-480 fused to the Fc of human IgG, R&D Systems) (human) (UniProt P05362); experiment: flow cytometry on yeast-displayed I domain, ICAM-1-Fcγ 10 µg/ml
[6] = target: T1, ICAM-1-Fcγ (ICAM-1 residues of 1-480 …); experiment: as above
Protocol: Cells that were cultured only in SD-CAA or further induced in SG-CAA were harvested, washed with 100 μl of labeling buffer (PBS, 0.5% BSA, 10 mM MgCl₂), and then incubated with ligands at 10 μg/ml in 50 μl of the labeling buffer for 20 min with shaking at 30° C. in a 96-well V-bottom plate. Ligands used in this study were anti-c-myc antibody 9E10 (Santa Cruz Biotechnology, CA) and anti-hemagglutinin antibody 12CA5 (Roche Applied Science), αL I domain-specific antibodies TS1/22 and MEM83³², and ICAM-1-Fcγ (ICAM-1 residues of 1-480 fused to the Fc of human IgG, R&D Systems). After incubation with the primary ligands, cells were washed once in 100 μl of the labeling buffer and incubated with the fluorescence-conjugated secondary antibodies at 5 μg/ml in 50 μl of the labeling buffer for 20 min at 4° C. Finally, cells were washed once in 100 μl and suspended in 100 μl of the labeling buffer for flow cytometry (FACScan, BD Biosciences).
A total of twenty-five yeast colonies were picked from SD-CAA plates from the libraries selected with ICAM-1-Fcγ. These clones were tested for binding of ICAM-1-Fcγ, and sequenced (Table 1). Of these, 15 had unique sequences and were designated as m1 to m15, and all bound ICAM-1 better than wild-type (Table 1). Five clones contained single mutations, and the remainder contained 2-5 mutations each (Table 1). From the clones containing multiple mutations, one to three residues were selected and independently tested as a single substitution (designated with a, b, or c suffix) or independently isolated from the ratchet residue library (see below).

T1 sequence (P05362 28-480 limits assumed, form in doubt): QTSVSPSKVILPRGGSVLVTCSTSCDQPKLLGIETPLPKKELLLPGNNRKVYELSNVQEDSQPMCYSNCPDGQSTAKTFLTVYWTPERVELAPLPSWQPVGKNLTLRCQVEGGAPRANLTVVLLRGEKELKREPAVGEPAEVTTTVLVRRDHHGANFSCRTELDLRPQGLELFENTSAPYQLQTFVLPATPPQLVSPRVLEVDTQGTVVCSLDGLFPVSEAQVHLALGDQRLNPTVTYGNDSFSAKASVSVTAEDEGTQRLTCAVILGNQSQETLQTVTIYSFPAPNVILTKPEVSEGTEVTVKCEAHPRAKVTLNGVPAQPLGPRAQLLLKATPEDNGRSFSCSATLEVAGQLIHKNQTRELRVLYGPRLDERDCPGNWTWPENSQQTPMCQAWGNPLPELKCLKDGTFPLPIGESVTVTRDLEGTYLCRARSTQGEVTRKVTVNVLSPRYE
Chain of ICAM-1-Fcγ (ICAM-1 residues of 1-480 fused to the Fc of human IgG, R&D Systems) (human) (P05362 28-480 limits assumed): as the sequence (P05362 28-480 limits assumed, form in doubt) above

Binder	Kd [3] [nM]	koff [3] [s⁻¹]	kon [3] [M⁻¹ s⁻¹]	ICAM-1 (% ASFI of HA) [6]	further results
B1	119	0.0019	16000	–	fold higher affinity compared to the F292A mutant [1]: 170 fold; fold slower dissociation rate than the F292A mutant [1]: 100 fold; fold decrease in dissociation-rate (against wild type) [2]: 1000 fold; fold increase in affinity (against wild type) [2]: 10000 fold
B2	6	0.00015	25000	–	fold decrease in dissociation rate compared to the F265S and F292G single mutants [1]: 10 fold; fold higher binding affinity than the HA mutant [1]: 20 fold; fold higher kon than the single mutants [1]: 2 fold; fold slower dissociation rate than the HA I domain [1]: ~100 fold; IC50 in blocking the adhesion of PMA activated lymphocytes to ICAM-1 coated surfaces [4]: 350 nM; potency relative to the HA I domain in lymphocyte adhesion to ICAM-1, transmigration and homotypic aggregation [4]: 10 fold; fold increase in affinity compared to the wild-type I domain [2]: 200000 fold
B3	20000	0.19	9500	–	fold increase in affinity (against wild type) [2]: 75 fold
B4	145	0.0017	11800	–	fold slower dissociation rate than the F292A mutant [1]: 100 fold; fold decrease in dissociation-rate (against wild type) [2]: 1000 fold; fold increase in affinity (against wild type) [2]: 10000 fold
B5	–	–	–	–	ICAM-1 (% ASFI of HA) [5]: 4 % ASFI of HA
B6	–	–	–	–	ICAM-1 (% ASFI of HA) [5]: 1 % ASFI of HA
B7	–	–	–	110 % ASFI of HA	–
B8	–	–	–	14 % ASFI of HA	–
B9	–	–	–	27 % ASFI of HA	–
B10	–	–	–	123 % ASFI of HA	–
B11	–	–	–	17 % ASFI of HA	–
B12	–	–	–	30 % ASFI of HA	–
